# Tests used:
# Test in all cases: BLI
# [1] = target: M15 single reverted mutant S32I (light chain I32 reverted to germline S) (human)
# [2] = target: M15 triple mutant (light chain S32I, G51A and T57I all reverted to germline) (human)
# [3] = target: M15 single reverted mutant G51A (light chain A51 reverted to germline G) (human)
# [4] = target: M15 single reverted mutant T57I (light chain I57 reverted to germline T) (human)
substance,measurement,setting,value
SARS-CoV-2 WA1/2020 S2 protein (stabilized prefusion spike S2 trimer) (from UniProt P0DTC2) (domain or fragment),fold decrease in binding affinity compared with M15,[1],1.45 fold
same,fold decrease in binding affinity compared with M15,[2],12 fold
same,fold decrease in binding affinity compared with M15,[3],1.88 fold
same,fold decrease in binding affinity compared with M15,[4],1.02 fold

# Reference: PMC12477886
